The record followed here is patent EP0528847B1.

In experiment [1] the target is full-length human γ-interferon receptor, on cells (human) (UniProt P15260). Briefly: ¹²⁵I-IFN-γ binding to COS7 cells transfected with plasmid T884-5, Expt. 1.
For experiment [2] the target is unchanged. The experiment can be described thus: ¹²⁵I-IFN-γ binding to COS7 cells transfected with plasmid T886-5, Expt. 2.
The target is the same in experiment [3]. Briefly: ¹²⁵I-IFN-γ binding to COS7 cells transfected with plasmid T886-6, Expt. 3.
The target is the same in experiment [4]. The experiment can be described thus: ¹²⁵I-IFN-γ binding to COS7 cells transfected with plasmid T884-5, Expt. 1'.
Experiment [5] shares this target. Briefly: ¹²⁵I-IFN-γ binding to COS7 cells transfected with plasmid T886-5, Expt. 2'.
Experiment [6] shares this target. The experiment can be described thus: ¹²⁵I-IFN-γ binding to COS7 cells transfected with plasmid T886-6, Expt. 3'.

Sequence of UniProt P15260 (P15260 18-489): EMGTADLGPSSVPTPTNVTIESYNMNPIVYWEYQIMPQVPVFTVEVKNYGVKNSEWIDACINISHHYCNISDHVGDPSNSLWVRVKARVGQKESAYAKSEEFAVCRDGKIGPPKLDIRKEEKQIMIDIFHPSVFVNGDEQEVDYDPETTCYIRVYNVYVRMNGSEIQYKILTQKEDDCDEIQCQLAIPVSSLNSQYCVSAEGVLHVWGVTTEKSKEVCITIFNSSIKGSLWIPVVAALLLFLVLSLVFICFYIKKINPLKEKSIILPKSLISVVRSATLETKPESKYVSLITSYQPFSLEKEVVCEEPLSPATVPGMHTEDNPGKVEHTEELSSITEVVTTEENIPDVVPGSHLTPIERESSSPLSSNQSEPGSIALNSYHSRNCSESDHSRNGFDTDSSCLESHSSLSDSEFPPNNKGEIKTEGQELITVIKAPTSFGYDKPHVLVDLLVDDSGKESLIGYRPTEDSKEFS

“human γ-interferon (amino acids 4-137 of the mature protein), produced in E. coli 294 from plasmid pGIF4-137 (from UniProt P01579 4-137) (ligand)”: the Background Binding (1), ¹²⁵I IFN-γ cpm bound at 0.1 µg/ml unlabeled IFN-γ in experiment [1] stood at 1830 cpm; in experiment [2] it was 1980 cpm; in experiment [3], 2530 cpm; in experiment [4], 1560 cpm; in experiment [5], 2400 cpm; in experiment [6] it was 2090 cpm. The Background Binding (2), ¹²⁵I IFN-γ cpm bound at 10 µg/ml unlabeled IFN-γ in experiment [1] came to 130 cpm; in experiment [2], 150 cpm; in experiment [3] it was 231 cpm; in experiment [4], 77.8 cpm; in experiment [5], 198 cpm; in experiment [6] it was 69.8 cpm. Moreover, the Specific Binding (3) = (1) - (2) stood at 1700 cpm in experiment [1]; 1830 cpm in experiment [2]; 2300 cpm in experiment [3]; 1480 cpm in experiment [4]; 2210 cpm in experiment [5]; 2020 cpm in experiment [6].
